This note sets out measurements from patent US20240209070A1, “COTH3 BINDING AGENTS AND USES THEREOF” (priority 2021, published 2024).

The target of experiment [1] is Cunninghamella bertholletiae (Cunninghamella bertholletiae). The experiment can be described thus: flow cytometry on fixed Cunninghamella bertholletiae spores; blank 'Hu 2nd Only' median 241.78, mean 250.81. (In general: In flow cytometry, cells or beads pass a laser one at a time.)
In experiment [2] the target is Lichtheimia corymbifera (Lichtheimia corymbifera). The experiment can be described thus: flow cytometry on fixed Lichtheimia corymbifera spores; blank 'Hu 2nd Only' median 461.38, mean 517.80.
In experiment [3] the target is Mucor circinelloides (Mucor circinelloides). The experiment can be described thus: flow cytometry on fixed Mucor circinelloides spores; blank 'Hu 2nd Only' median 990.21, mean 1062.19.
The target of experiment [4] is Rhizomucor (Rhizomucor (species not given)). The experiment can be described thus: flow cytometry on fixed Rhizomucor spores; blank 'Hu 2nd Only' median 257.20, mean 272.52.
Experiment [5] deals with Rhizopus delemar (Rhizopus delemar). The experiment can be described thus: flow cytometry on fixed Rhizopus delemar spores; blank 'Hu 2nd Only' median 565.83, mean 592.76.
Rhizopus delemar (Rhizopus delemar), sequence (I1CFE1 18-579): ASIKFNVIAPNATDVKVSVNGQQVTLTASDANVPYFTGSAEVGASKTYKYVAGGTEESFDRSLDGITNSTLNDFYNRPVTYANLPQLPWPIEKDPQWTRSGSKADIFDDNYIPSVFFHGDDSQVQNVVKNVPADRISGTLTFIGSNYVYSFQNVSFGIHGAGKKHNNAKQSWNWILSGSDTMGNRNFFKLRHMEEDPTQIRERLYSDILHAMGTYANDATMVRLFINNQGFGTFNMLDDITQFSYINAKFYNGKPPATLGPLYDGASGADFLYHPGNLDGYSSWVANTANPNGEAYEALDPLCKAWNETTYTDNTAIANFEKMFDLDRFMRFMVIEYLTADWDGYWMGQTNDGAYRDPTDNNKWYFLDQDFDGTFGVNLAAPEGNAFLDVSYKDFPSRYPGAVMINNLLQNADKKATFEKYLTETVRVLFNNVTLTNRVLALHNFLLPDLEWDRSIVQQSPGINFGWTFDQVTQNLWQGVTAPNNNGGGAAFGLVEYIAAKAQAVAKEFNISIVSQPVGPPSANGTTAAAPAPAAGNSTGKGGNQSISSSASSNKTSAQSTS

Regarding Hu Isotype IgG (antibody), the Mean: FITC-A in experiment [1] came out at 1070; in experiment [2] it was 2830; in experiment [3], 2020; in experiment [4] it was 1110; in experiment [5] it was 1210. Also, the Median: FITC-A in experiment [1] amounted to 833; in experiment [2] it was 1170; in experiment [3] it was 1820; in experiment [4], 843; in experiment [5], 1010.
